For one assay, the target named is T1, HA-ADAM22 (UniProt Q9P0K1 223-906).
T1 construct: ADAM22 (A Disintegrin And Metalloprotease domain 22) receptor, cDNA; In the HEK293T lysates it is present in both immature (110 kDa) and mature (90 kDa) forms; also called HA-tagged ADAM22; HA-fused ADAM22; source: COS7, co-transfected, on cells (immunofluorescence); HEK293T, co-transfected, in lysate (co-IP)
T1 sequence (looked up): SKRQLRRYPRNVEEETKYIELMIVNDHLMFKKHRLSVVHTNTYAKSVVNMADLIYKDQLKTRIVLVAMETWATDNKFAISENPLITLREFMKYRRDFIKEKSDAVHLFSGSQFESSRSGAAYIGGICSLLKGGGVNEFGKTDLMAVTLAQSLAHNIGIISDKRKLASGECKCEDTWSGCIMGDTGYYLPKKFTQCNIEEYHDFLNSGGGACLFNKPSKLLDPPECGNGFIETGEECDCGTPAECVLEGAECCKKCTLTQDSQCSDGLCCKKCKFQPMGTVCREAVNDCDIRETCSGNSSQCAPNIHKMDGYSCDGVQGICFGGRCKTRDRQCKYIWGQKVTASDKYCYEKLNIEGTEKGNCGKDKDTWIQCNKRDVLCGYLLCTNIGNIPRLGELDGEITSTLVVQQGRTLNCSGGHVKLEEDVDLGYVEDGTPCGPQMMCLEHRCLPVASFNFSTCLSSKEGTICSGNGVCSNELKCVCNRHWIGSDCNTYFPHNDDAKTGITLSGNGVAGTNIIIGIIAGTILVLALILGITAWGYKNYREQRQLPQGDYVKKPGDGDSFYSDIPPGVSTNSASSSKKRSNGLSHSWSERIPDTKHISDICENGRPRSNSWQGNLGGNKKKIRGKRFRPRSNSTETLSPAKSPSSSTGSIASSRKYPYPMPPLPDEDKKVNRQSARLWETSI
Description: immunostaining of cells or tissue; COS7 cells co-transfected with LGI1-Flag (wild type or mutant) and HA-ADAM22 or HA-ADAM23; 36 h after transfection fixed, LGI1 stained with anti-Flag before permeabilisation, ADAM with anti-HA after it; percentage of co-immunostained cells with both signals on the cell surface counted; three independent experiments. Particulars: partners not purified.

The target of another assay is T2, HA-ADAM23 (UniProt O75077 287-832).
T2 construct: ADAM23 (A Disintegrin And Metalloprotease domain 23) receptor, cDNA; Expression of HA-ADAM23 in HEK293T was lower than that of HA-ADAM22; also called HA-tagged ADAM23; HA-fused ADAM23; source: COS7, co-transfected, on cells (immunofluorescence); HEK293T, co-transfected, in lysate (co-IP)
T2 sequence (looked up): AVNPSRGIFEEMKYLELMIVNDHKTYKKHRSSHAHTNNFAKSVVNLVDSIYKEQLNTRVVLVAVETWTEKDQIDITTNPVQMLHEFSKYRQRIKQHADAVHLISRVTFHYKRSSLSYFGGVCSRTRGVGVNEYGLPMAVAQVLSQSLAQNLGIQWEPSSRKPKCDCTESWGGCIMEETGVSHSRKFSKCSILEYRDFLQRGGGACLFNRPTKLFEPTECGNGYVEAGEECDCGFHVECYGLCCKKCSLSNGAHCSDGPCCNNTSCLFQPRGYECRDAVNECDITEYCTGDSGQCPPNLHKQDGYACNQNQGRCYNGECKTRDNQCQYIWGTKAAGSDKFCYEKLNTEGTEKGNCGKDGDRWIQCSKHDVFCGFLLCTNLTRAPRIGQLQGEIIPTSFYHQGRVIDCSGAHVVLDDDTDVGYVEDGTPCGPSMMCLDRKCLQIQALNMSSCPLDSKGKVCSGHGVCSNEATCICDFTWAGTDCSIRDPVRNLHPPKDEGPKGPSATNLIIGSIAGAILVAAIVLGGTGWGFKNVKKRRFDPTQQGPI
Described as above. The following applies: partners not purified.

These results are taken from PMC5070869, “Secretion-Positive LGI1 Mutations Linked to Lateral Temporal Epilepsy Impair Binding to ADAM22 and ADAM23 Receptors” (PLoS Genetics, 2016).

B1: wild type LGI1-Flag (leucine-rich, glioma-inactivated 1) (ligand, human, UniProt O95970 35-557, looked up)
chain: KKPAKPKCPAVCTCTKDNALCENARSIPRTVPPDVISLSFVRSGFTEISEGSFLFTPSLQLLLFTSNSFDVISDDAFIGLPHLEYLFIENNNIKSISRHTFRGLKSLIHLSLANNNLQTLPKDIFKGLDSLTNVDLRGNSFNCDCKLKWLVEWLGHTNATVEDIYCEGPPEYKKRKINSLSSKDFDCIITEFAKSQDLPYQSLSIDTFSYLNDEYVVIAQPFTGKCIFLEWDHVEKTFRNYDNITGTSTVVCKPIVIETQLYVIVAQLFGGSHIYKRDSFANKFIKIQDIEILKIRKPNDIETFKIENNWYFVVADSSKAGFTTIYKWNGNGFYSHQSLHAWYRDTDVEYLEIVRTPQTLRTPHLILSSSSQRPVIYQWNKATQLFTNQTDIPNMEDVYAVKHFSVKGDVYICLTRFIGDSKVMKWGGSSFQDIQRMPSRGSMVFQPLQINNYQYAILGSDYSFTQVYNWDAEKAKFVKFQELNVQAPRSFTHVSINKRNFLFASSFKGNTQIYKHVIVDLSA
notes: the protein has a signal peptide and is secreted; also called LGI1 wild type; WT; source: COS7, co-transfected with HA-ADAM22 or HA-ADAM23 (immunofluorescence); HEK293T, co-transfected, in lysate (co-IP)
Turning to B1, the “percent of cells with membrane-bound LGI1” value with HA-ADAM22 is 76%; in the assay with HA-ADAM23, 88%.

B2: LGI1-R474Q (Flag-tagged) (ligand, human, UniProt O95970 35-557, looked up)
chain: KKPAKPKCPAVCTCTKDNALCENARSIPRTVPPDVISLSFVRSGFTEISEGSFLFTPSLQLLLFTSNSFDVISDDAFIGLPHLEYLFIENNNIKSISRHTFRGLKSLIHLSLANNNLQTLPKDIFKGLDSLTNVDLRGNSFNCDCKLKWLVEWLGHTNATVEDIYCEGPPEYKKRKINSLSSKDFDCIITEFAKSQDLPYQSLSIDTFSYLNDEYVVIAQPFTGKCIFLEWDHVEKTFRNYDNITGTSTVVCKPIVIETQLYVIVAQLFGGSHIYKRDSFANKFIKIQDIEILKIRKPNDIETFKIENNWYFVVADSSKAGFTTIYKWNGNGFYSHQSLHAWYRDTDVEYLEIVRTPQTLRTPHLILSSSSQRPVIYQWNKATQLFTNQTDIPNMEDVYAVKHFSVKGDVYICLTRFIGDSKVMKWGGSSFQDIQRMPSQGSMVFQPLQINNYQYAILGSDYSFTQVYNWDAEKAKFVKFQELNVQAPRSFTHVSINKRNFLFASSFKGNTQIYKHVIVDLSA
notes: LGI1 with the ADLTE-causing substitution R474Q (c.1421G>A); secreted protein; also called c.1421G>A; source: COS7, co-transfected with HA-ADAM22 or HA-ADAM23 (immunofluorescence); HEK293T, co-transfected, in lysate (co-IP)
For the molecule B2, the figures for the “percent of cells with membrane-bound LGI1” value with HA-ADAM22 and with HA-ADAM23 were 13% and 23%, respectively.

B3: LGI1-S473L (Flag-tagged) (ligand, human, UniProt O95970 35-557, looked up)
chain: KKPAKPKCPAVCTCTKDNALCENARSIPRTVPPDVISLSFVRSGFTEISEGSFLFTPSLQLLLFTSNSFDVISDDAFIGLPHLEYLFIENNNIKSISRHTFRGLKSLIHLSLANNNLQTLPKDIFKGLDSLTNVDLRGNSFNCDCKLKWLVEWLGHTNATVEDIYCEGPPEYKKRKINSLSSKDFDCIITEFAKSQDLPYQSLSIDTFSYLNDEYVVIAQPFTGKCIFLEWDHVEKTFRNYDNITGTSTVVCKPIVIETQLYVIVAQLFGGSHIYKRDSFANKFIKIQDIEILKIRKPNDIETFKIENNWYFVVADSSKAGFTTIYKWNGNGFYSHQSLHAWYRDTDVEYLEIVRTPQTLRTPHLILSSSSQRPVIYQWNKATQLFTNQTDIPNMEDVYAVKHFSVKGDVYICLTRFIGDSKVMKWGGSSFQDIQRMPLRGSMVFQPLQINNYQYAILGSDYSFTQVYNWDAEKAKFVKFQELNVQAPRSFTHVSINKRNFLFASSFKGNTQIYKHVIVDLSA
notes: LGI1 with the ADLTE-causing substitution S473L (c.1418C>T); secreted protein; also called c.1418C>T; source: COS7, co-transfected with HA-ADAM22 or HA-ADAM23 (immunofluorescence); HEK293T, co-transfected, in lysate (co-IP)
Turning to B3, the “percent of cells with membrane-bound LGI1” value stood at 3% with HA-ADAM22 and 16% with HA-ADAM23.

B4: LGI1-R407C (Flag-tagged) (ligand, human, UniProt O95970 35-557, looked up)
chain: KKPAKPKCPAVCTCTKDNALCENARSIPRTVPPDVISLSFVRSGFTEISEGSFLFTPSLQLLLFTSNSFDVISDDAFIGLPHLEYLFIENNNIKSISRHTFRGLKSLIHLSLANNNLQTLPKDIFKGLDSLTNVDLRGNSFNCDCKLKWLVEWLGHTNATVEDIYCEGPPEYKKRKINSLSSKDFDCIITEFAKSQDLPYQSLSIDTFSYLNDEYVVIAQPFTGKCIFLEWDHVEKTFRNYDNITGTSTVVCKPIVIETQLYVIVAQLFGGSHIYKRDSFANKFIKIQDIEILKIRKPNDIETFKIENNWYFVVADSSKAGFTTIYKWNGNGFYSHQSLHAWYRDTDVEYLEIVRTPQTLRTPHLILSSSSQCPVIYQWNKATQLFTNQTDIPNMEDVYAVKHFSVKGDVYICLTRFIGDSKVMKWGGSSFQDIQRMPSRGSMVFQPLQINNYQYAILGSDYSFTQVYNWDAEKAKFVKFQELNVQAPRSFTHVSINKRNFLFASSFKGNTQIYKHVIVDLSA
notes: LGI1 with the ADLTE-causing substitution R407C (c.1219C>T); secreted protein; also called c.1219C>T; source: COS7, co-transfected with HA-ADAM22 or HA-ADAM23 (immunofluorescence); HEK293T, co-transfected, in lysate (co-IP)
Consider B4, for which the figures for the “percent of cells with membrane-bound LGI1” value with HA-ADAM22 and in the assay with HA-ADAM23 were 36% and 29%, respectively.
